From patent publication US20110301073

Tests used:
[1] = tested on: TALE test backbone, repeat 5 RVD AD (synthetic (Xanthomonas TALE)); settings: ELISA
[2] = tested on: TALE test backbone, repeat 5 RVD AN (synthetic (Xanthomonas TALE)); settings: ELISA
[3] = tested on: TALE test backbone, repeat 5 RVD AT (synthetic (Xanthomonas TALE)); settings: ELISA
[4] = tested on: TALE test backbone, repeat 5 RVD HA (synthetic (Xanthomonas TALE)); settings: ELISA
[5] = tested on: TALE test backbone, repeat 5 RVD HG (synthetic (Xanthomonas TALE)); settings: ELISA
[6] = tested on: TALE test backbone, repeat 5 RVD HN (synthetic (Xanthomonas TALE)); settings: ELISA
[7] = tested on: TALE test backbone, repeat 5 RVD IG (synthetic (Xanthomonas TALE)); settings: ELISA
[8] = tested on: TALE test backbone, repeat 5 RVD KD (Xanthomonas sp. (engineered)); settings: RVD KD
[9] = tested on: TALE test backbone, repeat 5 RVD KG (synthetic (Xanthomonas TALE)); settings: ELISA
[10] = tested on: TALE test backbone, repeat 5 RVD KS (synthetic (Xanthomonas TALE)); settings: ELISA
[11] = tested on: TALE test backbone, repeat 5 RVD NG (Xanthomonas sp. (engineered)); settings: RVD NG
[12] = tested on: TALE test backbone, repeat 5 RVD NS (synthetic (Xanthomonas TALE)); settings: ELISA
[13] = tested on: TALE test backbone, repeat 5 RVD QG (synthetic (Xanthomonas TALE)); settings: ELISA
[14] = tested on: TALE test backbone, repeat 5 RVD SG (synthetic (Xanthomonas TALE)); settings: ELISA
[15] = tested on: TALE test backbone, repeat 5 RVD TA (synthetic (Xanthomonas TALE)); settings: ELISA
[16] = tested on: TALE test backbone, repeat 5 RVD TP (synthetic (Xanthomonas TALE)); settings: ELISA
[17] = tested on: TALE test backbone, repeat 5 RVD VG (synthetic (Xanthomonas TALE)); settings: ELISA

## TTGACCATCCT (double strand) [CCA target]
[1]
  binding signal (normalized ELISA): 0.4
[2]
  binding signal (normalized ELISA): 0
[3]
  binding signal (normalized ELISA): 0.58
[4]
  binding signal (normalized ELISA): 0.53
[5]
  binding signal (normalized ELISA): 0.11
[6]
  binding signal (normalized ELISA): 0
[7]
  binding signal (normalized ELISA): 0.02
[8]
  binding signal (normalized ELISA): 0.61
[9]
  binding signal (normalized ELISA): 0.27
[10]
  binding signal (normalized ELISA): 0.78
[11]
  binding signal (normalized ELISA): 0.14
[12]
  binding signal (normalized ELISA): 0.26
[13]
  binding signal (normalized ELISA): 0.11
[14]
  binding signal (normalized ELISA): 0.23
[15]
  binding signal (normalized ELISA): 0.2
[16]
  binding signal (normalized ELISA): 0.2
[17]
  binding signal (normalized ELISA): 0.02
